Test results reported in patent US20240343803A1.

Target: cynomolgus monkey PVRIG on FlpinCHO-cyno PVRIG cells (cynomolgus monkey)
Assay: FACS, FlpinCHO-cyno PVRIG cells

cynomolgus monkey PVRIG on FlpinCHO-cyno PVRIG cells (cynomolgus monkey), sequence (chain, as listed by the source): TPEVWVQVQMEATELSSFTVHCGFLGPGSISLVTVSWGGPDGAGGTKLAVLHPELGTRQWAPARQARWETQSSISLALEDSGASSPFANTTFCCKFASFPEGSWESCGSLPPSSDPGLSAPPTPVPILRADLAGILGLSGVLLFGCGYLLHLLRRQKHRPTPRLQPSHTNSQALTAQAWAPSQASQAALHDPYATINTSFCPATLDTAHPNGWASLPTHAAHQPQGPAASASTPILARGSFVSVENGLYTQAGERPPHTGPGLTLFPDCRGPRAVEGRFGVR

- AUC % to COM701-hIgG1: 3.27%
- AUC % to SRF813-hIgG1: 4.05%
- AUC % to parental Ab: 3.74%
B1: PVRIG-A105-H3a (Fc fusion, not shown: a dimerising Fc or GST)
chain: EVQLVESGGGLVQPGGSLRLSCAASGRTFDRHTMTWFRQAPGKEREFVATASRIPGDTYYVDSVKGRFTISRDNAKNSVYLQMNSLRAEDTAVYYCAATSAYSSEVDSYEKGSWYDNWGQGTMVTVSS
